Test results as given in patent US20260117202A1.
Where “and” joins values, the source holds several entries; their conditions need not be identical. Identical values can stand only once.

Tests used:
FHCS-2 (RSV strain A2) [1] = biological target: FHCS-2 (RSV strain A2) (UniProt P03420); assay: ELISA; F coated 312.5 ng/ml; stored -80° C.
FHCS-4 (RSV strain A2) [2] = biological target: FHCS-4 (RSV strain A2) (UniProt P03420); assay: ELISA; F coated 312.5 ng/ml; stored -80° C.
FHCS-1 (RSV strain A2) [3] = biological target: FHCS-1 (RSV strain A2) (UniProt P03420); assay: ELISA; F coated 312.5 ng/ml; stored -80° C.
FHCS-1 (RSV strain A2) [4] = biological target: FHCS-1 (RSV strain A2) (UniProt P03420); assay: ELISA; F coated 312.5 ng/ml; stored -80° C.; remark: listed apart in the source
FHCS-2 (RSV strain A2) [5] = biological target: FHCS-2 (RSV strain A2) (UniProt P03420); assay: ELISA; F coated 2500 ng/ml; stored -80° C.
FHCS-4 (RSV strain A2) [6] = biological target: FHCS-4 (RSV strain A2) (UniProt P03420); assay: ELISA; F coated 2500 ng/ml; stored -80° C.
FHCS-1 (RSV strain A2) [7] = biological target: FHCS-1 (RSV strain A2) (UniProt P03420); assay: ELISA; F coated 2500 ng/ml; stored -80° C.
FHCS-2 (RSV strain A2) [8] = biological target: FHCS-2 (RSV strain A2) (UniProt P03420); assay: ELISA; F coated 10000 ng/ml; stored -80° C.
FHCS-4 (RSV strain A2) [9] = biological target: FHCS-4 (RSV strain A2) (UniProt P03420); assay: ELISA; F coated 10000 ng/ml; stored -80° C.
FHCS-1 (RSV strain A2) [10] = biological target: FHCS-1 (RSV strain A2) (UniProt P03420); assay: ELISA; F coated 10000 ng/ml; stored -80° C.
FHCS-2 (RSV strain A2) [11] = biological target: FHCS-2 (RSV strain A2) (UniProt P03420); assay: ELISA; F coated 5000 ng/ml; stored -80° C.
FHCS-4 (RSV strain A2) [12] = biological target: FHCS-4 (RSV strain A2) (UniProt P03420); assay: ELISA; F coated 5000 ng/ml; stored -80° C.
FHCS-1 (RSV strain A2) [13] = biological target: FHCS-1 (RSV strain A2) (UniProt P03420); assay: ELISA; F coated 5000 ng/ml; stored -80° C.
[14] = biological target: wild-type RSV F protein 2 before artificial mutation (RSV strain A2) (UniProt P03420); assay: sandwich ELISA, AM14 coated, F at 2 µg/ml
FHCS-2 (RSV strain A2) [15] = biological target: FHCS-2 (RSV strain A2) (UniProt P03420); assay: ELISA; F coated 10000 ng/ml; stored -80° C.; remark: listed apart in the source
FHCS-4 (RSV strain A2) [16] = biological target: FHCS-4 (RSV strain A2) (UniProt P03420); assay: ELISA; F coated 10000 ng/ml; stored -80° C.; remark: listed apart in the source
FHCS-1 (RSV strain A2) [17] = biological target: FHCS-1 (RSV strain A2) (UniProt P03420); assay: ELISA; F coated 10000 ng/ml; stored -80° C.; remark: listed apart in the source
FHCS-2 (RSV strain A2) [18] = biological target: FHCS-2 (RSV strain A2) (UniProt P03420); assay: ELISA; F coated 10000 ng/ml; stored 37° C. 4 W
FHCS-4 (RSV strain A2) [19] = biological target: FHCS-4 (RSV strain A2) (UniProt P03420); assay: ELISA; F coated 10000 ng/ml; stored 37° C. 4 W
FHCS-1 (RSV strain A2) [20] = biological target: FHCS-1 (RSV strain A2) (UniProt P03420); assay: ELISA; F coated 10000 ng/ml; stored 37° C. 4 W
FHCS-2 (RSV strain A2) [21] = biological target: FHCS-2 (RSV strain A2) (UniProt P03420); assay: ELISA; F coated 312.5 ng/ml; stored 37° C. 2 W
FHCS-4 (RSV strain A2) [22] = biological target: FHCS-4 (RSV strain A2) (UniProt P03420); assay: ELISA; F coated 312.5 ng/ml; stored 37° C. 2 W
FHCS-1 (RSV strain A2) [23] = biological target: FHCS-1 (RSV strain A2) (UniProt P03420); assay: ELISA; F coated 312.5 ng/ml; stored 37° C. 2 W
FHCS-2 (RSV strain A2) [24] = biological target: FHCS-2 (RSV strain A2) (UniProt P03420); assay: ELISA; F coated 78.13 ng/ml; stored 37° C. 2 W
FHCS-4 (RSV strain A2) [25] = biological target: FHCS-4 (RSV strain A2) (UniProt P03420); assay: ELISA; F coated 78.13 ng/ml; stored 37° C. 2 W
FHCS-1 (RSV strain A2) [26] = biological target: FHCS-1 (RSV strain A2) (UniProt P03420); assay: ELISA; F coated 78.13 ng/ml; stored 37° C. 2 W
FHCS-2 (RSV strain A2) [27] = biological target: FHCS-2 (RSV strain A2) (UniProt P03420); assay: ELISA; F coated 1250 ng/ml; stored -80° C.
FHCS-4 (RSV strain A2) [28] = biological target: FHCS-4 (RSV strain A2) (UniProt P03420); assay: ELISA; F coated 1250 ng/ml; stored -80° C.
FHCS-1 (RSV strain A2) [29] = biological target: FHCS-1 (RSV strain A2) (UniProt P03420); assay: ELISA; F coated 1250 ng/ml; stored -80° C.
FHCS-2 (RSV strain A2) [30] = biological target: FHCS-2 (RSV strain A2) (UniProt P03420); assay: ELISA; F coated 2500 ng/ml; stored 37° C. 2 W
FHCS-4 (RSV strain A2) [31] = biological target: FHCS-4 (RSV strain A2) (UniProt P03420); assay: ELISA; F coated 2500 ng/ml; stored 37° C. 2 W
FHCS-1 (RSV strain A2) [32] = biological target: FHCS-1 (RSV strain A2) (UniProt P03420); assay: ELISA; F coated 2500 ng/ml; stored 37° C. 2 W
FHCS-2 (RSV strain A2) [33] = biological target: FHCS-2 (RSV strain A2) (UniProt P03420); assay: ELISA; F coated 625 ng/ml; stored 37° C. 2 W
FHCS-4 (RSV strain A2) [34] = biological target: FHCS-4 (RSV strain A2) (UniProt P03420); assay: ELISA; F coated 625 ng/ml; stored 37° C. 2 W
FHCS-1 (RSV strain A2) [35] = biological target: FHCS-1 (RSV strain A2) (UniProt P03420); assay: ELISA; F coated 625 ng/ml; stored 37° C. 2 W
FHCS-2 (RSV strain A2) [36] = biological target: FHCS-2 (RSV strain A2) (UniProt P03420); assay: ELISA; F coated 625 ng/ml; stored -80° C.
FHCS-4 (RSV strain A2) [37] = biological target: FHCS-4 (RSV strain A2) (UniProt P03420); assay: ELISA; F coated 625 ng/ml; stored -80° C.

AM14 monoclonal antibody
OD value (FHCS-2 (RSV strain A2) [1]): 0.007 OD | OD value (FHCS-4 (RSV strain A2) [2]): 0.008 OD and 0.006 OD | OD value (FHCS-1 (RSV strain A2) [3]): 0.003 OD and 0.006 OD | OD value (FHCS-1 (RSV strain A2) [4]): 0.004 OD and 0.008 OD | OD value (FHCS-2 (RSV strain A2) [5]): 0.051 OD and 0.056 OD | OD value (FHCS-4 (RSV strain A2) [6]): 0.008 OD and 0.007 OD | OD value (FHCS-1 (RSV strain A2) [7]): 0.034 OD and 0.039 OD | OD value (FHCS-2 (RSV strain A2) [8]): 2.01 OD and 2.11 OD | OD value (FHCS-4 (RSV strain A2) [9]): 0.825 OD and 0.743 OD | OD value (FHCS-1 (RSV strain A2) [10]): 1.77 OD and 2.07 OD | OD value (FHCS-2 (RSV strain A2) [11]): 0.203 OD and 0.382 OD | OD value (FHCS-4 (RSV strain A2) [12]): 0.404 OD and 0.294 OD | OD value (FHCS-1 (RSV strain A2) [13]): 0.158 OD and 0.167 OD | OD value [14]: 0.01 OD | OD value (FHCS-2 (RSV strain A2) [15]): 1.88 OD and 2.15 OD | OD value (FHCS-4 (RSV strain A2) [16]): 2.13 OD and 1.93 OD | OD value (FHCS-1 (RSV strain A2) [17]): 1.82 OD and 2.12 OD | OD value (FHCS-2 (RSV strain A2) [18]): 2.11 OD and 2.23 OD | OD value (FHCS-4 (RSV strain A2) [19]): 1.76 OD and 2.01 OD | OD value (FHCS-1 (RSV strain A2) [20]): 1.87 OD and 2.17 OD

Synagis® (antibody)
OD value (FHCS-2 (RSV strain A2) [21]): 0.084 OD and 0.095 OD | OD value (FHCS-4 (RSV strain A2) [22]): 0.074 OD and 0.071 OD | OD value (FHCS-1 (RSV strain A2) [23]): 0.051 OD and 0.05 OD | OD value (FHCS-2 (RSV strain A2) [24]): 0.018 OD and 0.022 OD | OD value (FHCS-4 (RSV strain A2) [25]): 0.018 OD and 0.015 OD | OD value (FHCS-1 (RSV strain A2) [26]): 0.01 OD and 0.015 OD | OD value (FHCS-2 (RSV strain A2) [27]): 0.928 OD | OD value (FHCS-4 (RSV strain A2) [28]): 0.321 OD and 0.328 OD | OD value (FHCS-1 (RSV strain A2) [29]): 0.635 OD and 0.642 OD | OD value (FHCS-2 (RSV strain A2) [30]): 1.6 OD and 1.85 OD | OD value (FHCS-4 (RSV strain A2) [31]): 1.46 OD and 1.58 OD | OD value (FHCS-1 (RSV strain A2) [32]): 1.88 OD and 1.43 OD | OD value (FHCS-2 (RSV strain A2) [33]): 0.211 OD and 0.227 OD | OD value (FHCS-4 (RSV strain A2) [34]): 0.187 OD and 0.166 OD | OD value (FHCS-1 (RSV strain A2) [35]): 0.123 OD and 0.125 OD | OD value (FHCS-2 (RSV strain A2) [36]): 0.409 OD and 0.307 OD | OD value (FHCS-4 (RSV strain A2) [37]): 0.11 OD
